Data reported in patent publication US10202593B2, “Evolved sortases and uses thereof” (President and Fellows of Harvard College, priority 2013, dated 2019).

B1: eSrtA(2A-9): P94R, S102C, A104H, E105D, K138P, K152I, N160K, K162H, T164N, D165A, K173E, I182V, K190E, T196S (protein)
chain: QAKPQIPKDKSKVAGYIEIPDADIKEPVYPGPATREQLNRGVCFHDENESLDDQNISIAGHTFIDRPNYQFTNLKAAKPGSMVYFKVGNETRIYKMTSIRKVHPNAVEVLDEQEGKDKQLTLVTCDDYNEETGVWESRKIFVATEVK
B2: eSrtA(4S-9): P94R, N98D, S102C, A104V, A118T, F122A, K134R, F144L, D160N, D165A, I182V, E189F, K190E, K196T (protein)
chain: QAKPQIPKDKSKVAGYIEIPDADIKEPVYPGPATREQLDRGVCFVEENESLDDQNISITGHTAIDRPNYQFTNLRAAKKGSMVYLKVGNETRKYKMTSIRNVKPTAVEVLDEQKGKDKQLTLVTCDDYNFETGVWETRKIFVATEVK

Key:
[1] = test system: GGG-functionalized amphiphilic diblock polypeptide; assay: GGG-diblock functionalization; format: biochemical; conditions: Alexa Fluor 488-LAETG or 647-LPESG, 1 hour
Sequence of GGG-functionalized amphiphilic diblock polypeptide (as listed by the source): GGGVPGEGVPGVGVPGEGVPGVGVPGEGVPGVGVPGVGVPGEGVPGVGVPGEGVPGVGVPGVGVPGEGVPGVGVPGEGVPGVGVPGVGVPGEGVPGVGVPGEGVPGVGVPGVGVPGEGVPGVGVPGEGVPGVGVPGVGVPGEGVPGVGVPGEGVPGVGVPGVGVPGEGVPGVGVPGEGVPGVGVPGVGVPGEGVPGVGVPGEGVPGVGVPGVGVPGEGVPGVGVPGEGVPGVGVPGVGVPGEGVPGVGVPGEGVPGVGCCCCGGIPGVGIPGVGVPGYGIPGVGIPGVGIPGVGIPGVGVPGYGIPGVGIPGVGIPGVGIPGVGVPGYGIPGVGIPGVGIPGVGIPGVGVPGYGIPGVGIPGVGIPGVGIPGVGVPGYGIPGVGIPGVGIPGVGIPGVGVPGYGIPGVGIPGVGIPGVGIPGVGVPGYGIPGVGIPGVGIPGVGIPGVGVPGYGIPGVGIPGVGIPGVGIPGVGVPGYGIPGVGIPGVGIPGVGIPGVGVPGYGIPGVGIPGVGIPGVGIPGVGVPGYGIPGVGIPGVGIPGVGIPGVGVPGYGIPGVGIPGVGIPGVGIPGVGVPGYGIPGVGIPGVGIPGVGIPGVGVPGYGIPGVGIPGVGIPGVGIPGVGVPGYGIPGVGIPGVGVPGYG
Protocol: Amphiphilic diblock polypeptide (Diblock) was co-incubated with Alexa Fluor® 488-LAETG (SEQ ID NO: 5), Alexa Fluor® 647-LPESG (SEQ ID NO: 3), eSrtA(2A-9), and/or eSrtA(4S-9). The reactions were analyzed by denaturing gel electrophoresis and visualized using either Coomassie stain (top), 488 fluorescence (bottom, blue), or 647 fluorescence (bottom, red). Magenta denotes the overlap of blue and red fluorescence signals.
GGG-functionalized recombinant amphiphilic diblock polypeptide (Diblock), GGG-Diblock, was used as a substrate to test the orthogonality of the two evolved sortases in solution. GGG-Diblock based on elastin-mimetic polypeptide sequences was prepared as previously described (Kim et al. Self-Assembly of Thermally Responsive Amphiphilic Diblock Copolypeptides into Spherical Micellar Nanoparticles. Angewandte Chemie International Edition 49, 4257-4260, doi:10.1002/anie.201001356 (2010)) with slight changes in sequence by genetically incorporating an N-terminal triglycine motif. A complete amine acid sequence is GGG-VPGEG-[(VPGVG)(VPGEG)(VPGVG)(VPGEG)(VPGVG)]10-CCCCGG-[(IPGVG)2VPGYG(IPGVG)2]15-VPGYG (SEQ ID NO: 75). In a 0.6 mL Eppendorf tube, GGG-functionalized Diblock (10 μM) was mixed with fluorophore-peptide (0.1 μM), evolved sortase (15 μM) and CaCl2 (100 mM), then reacted for 1 hour at room temperature. […]

[2] = Differential scanning fluorimetry for thermal melting curves; format: physicochemical
Protocol: FIGS. 25A-C show thermal melting curves for eSrtA variants. Each protein was freshly expressed and purified, then diluted to 40 μM in 100 mM Tris pH 7.5, 500 mM NaCl. Differential scanning fluorimetry was performed using the Life Technologies Protein Thermal Shift™ Dye kit according to manufacturers' instructions. Thermal scanning was performed on Biorad CFX96-Real Time PCR (25° C. to 99° C., 0.2° C./2s increments). To calculate Tm, fluorescence intensity was fit to the Boltzmann equation using Microsoft Excel using the Solver add-in. Melting curves were plotted with best-fit fluorescence intensities that were normalized to maximum fluorescence intensity. Tm values are shown with their standard deviations as determined from three technical replicates.
To determine thermal stability of eSrtA, eSrtA(2A-9), eSrtA(4S-9), and variants thereof, each protein was freshly expressed and purified, then diluted to 40 μM in 100 mM Tris pH 7.5, 500 mM NaCl. Differential scanning fluorimetry was performed using the Life Technologies Protein Thermal Shift™ Dye kit according to manufacturers' instructions. […] To calculate Tm, fluorescence intensity was fit to the Boltzmann equation using Microsoft Excel using the Solver add-in. Melting curves were plotted with best-fit fluorescence intensities that were normalized to maximum fluorescence intensity.

Molecule	peptide-diblock conjugation [1]	ΔTm compared to eSrtA [2] [°C]
B1	no detectable off-target substrate conjugation	~4.4
B2	no detectable off-target substrate conjugation	~4.4
